Laboratory results reported in US6719976B1, “Peptide-based immunotherapeutic agent for treating allergic diseases” (Meiji Milk Products Co., Ltd., priority 1996, dated 2004).

Tests used:
[1] = tested on: T cell line of each patient specifically recognizing Cry j 1 or Cry j 2; test: T cell line proliferation response to overlapping peptides ([3H] thymidine uptake); type: cell-based, human; conditions: 18 patients with cedar pollinosis; stimulation index 2 or more
Method: Peripheral lymphocytes from 18 patients with cedar pollinosis were stimulated by cedar pollen allergen Cry j 1 or Cry j 2to establish the T cell line of each patient capable of specifically recognizing the respective allergen.
A mixture of 5×10^4 cells of the autologous B cell line treated with mitomycin C, 2 μM of an overlapping peptide, and 2×10^4 cells of the T cell line was incubated for 2 days in RPMI-1640 medium supplemented with 0.2 ml of 15% serum on a 96-well culture plate. After 0.5 μCi [^3H] thymidine was added to the medium, incubation was continued for a further 18 hours. After the cells were harvested on a glass filter using a cell harvester, the level of [^3H] thymidine taken up into the cells was determined with a liquid scintillation counter. If the stimulation index is 2 or more, we consider that the added peptide is recognized as an antigenic peptide. The stimulation index means a value obtained by dividing the level of [^3H] thymidine taken up into the cells when the peptide was added by the level of [^3H] thymidine taken up into the cells when no peptide was added.
The HLA class II type is considered to vary in every patient. It is thus assumed that a T cell epitope to be recognized would vary depending on the HLA class II type. For this reason, the antigenic peptide that the patients recognized was mapped for the individual patient. […] On the allergen molecule, there are both regions that can be readily recognized and regions that can hardly be recognized, as a T cell epitope, depending on individuals. Moreover, since the proliferation rate of T cells varies depending on a T cell epitope, the epitope map alone makes it difficult to determine what antigenic peptide should be chosen to design the multi-epitope peptide.

human IgE antibody = test: Reactivity of the multi-epitope peptides with human IgE antibody (fluorescence plate assay); type: binding
Method: (§1) The six multi-epitope peptides (C.A.#1 through C.A.#6) obtained in Example 6 were dissolved in 0.2 M acetate buffer solution (pH 4.5). The solution was dispensed in quantities of 0.1 ml/well in a black plate (manufactured by Dainihon Pharmaceutical Co., Ltd.) then allowed to stand at 4° C. overnight. After the antigen solution was removed, the wells were washed three times with a washing solution and the serum (4-fold dilution) from 29 patients with cedar pollinosis and healthy subjects were each added to separate wells. The system was then reacted at 37° C. for 4 hours. After the sera were removed, the wells were washed three times with a washing solution then reacted with anti-human IgE antibody (made by Pharmacia Inc.) at room temperature overnight. After washing three times with a washing solution, a substrate solution containing 0.1 mM 4-methylumbelliferyl-, β-D-galacto-pyranoside/0.01 M phosphate buffer (pH 7.0), 0.1 M NaCl, 1 mM MgCl2, 0.1% NaN, and 0.1% BSA was added, and the solution was incubated at 37° C. for 2 hours. A solution of 0.1 M glycine/NaOH (pH 10.3) was added to the wells to terminate the reaction. Fluorescent intensity was measured using a fluorophotometer (Labsystems). For positive control to each multi-epitope peptide, biotin-labeled rabbit anti-d epitope IgG and peroxidase-labeled streptoavidin (made by Pierce Inc.) were reacted.

[2] = tested on: rabbit anti-d epitope IgG; test: Positive control reactivity with rabbit anti-d epitope IgG; type: binding; conditions: blank: 112
Method: as §1

CBF1 mice = test: Inducing immune tolerance by administering cedar pollen allergen to mice; type: in vivo; conditions: 300 μg/mouse s.c. twice, then sensitized with 100 μg Cry j 1 + Alum; compared to PBS control group
Method: The detailed mechanism in hyposensitization therapy by which cedar pollen allergen is administered for the treatment is yet unknown. To clarify this mechanism, tests were conducted using mice. Cedar pollen allergen Cry j 1 was subcutaneously administered twice to five CBF1 female mice at intervals of 5 days in a dose of 300 μg/mouse. For control, the same dose of PBS was subcutaneously given to five other female mice. Five days later, the animals were sensitized by subcutaneous injection of 100 μg Cry j 1 together with Alum adjuvant. Ten days later, the lymphocytes were isolated to pool them as the lymphocytes from the control group and as the lymphocytes from the Cry j 1-administered mice. Cry j 1 was added to the pooled lymphocytes in doses of 0, 50 and 150 μg/ml. Incubation was performed for 3 days to collect the culture supernatant. In the control (PBS-administered) mouse group, IL-2 production increased as the concentration of Cry j 1 increased from 0 to 50 and 150 μg/ml. […] The results verify that currently implemented hyposensitization therapy using the cedar pollen allergen is efficacious.

[3] = tested on: spleen cells of CBF1 mice immunized with rCry j 2; test: Identifying T cell epitopes in CBF1 mice (spleen cell [3H] thymidine uptake); type: cell-based, mouse; conditions: peptides 0.115 μM; Cry j 1 50 μg/ml; rCry j 2 0.3 μg/ml
Method: Eight-week-old male CBF1 mice were boosted (i.p.) three times with 10 μg of recombinant Cry j 2 (rCry j 2) at intervals of two weeks together with an adjuvant (Imject Alum, manufactured by Pierce Inc.). One week after the final booster, the spleen cells (5×10^6 cells) were cultured together with each of the 74 kinds of Cry j 2 overlapping peptides (0.115 μM) consisting of 15 residues in 0.2 ml RPMI medium (supplemented with 10% FCS, 2 mM L-glutamine, 50 U/ml penicillin and 50 μg/ml streptomycin) in each well of a 96-well plate(manufactured by Falcon Inc.). For control, the reactivities with PBS, 50 μg/ml of Cry j 1, and 0.3 μg/ml of rCry j 2 were also observed. Each reagent was distributed in three wells and incubated at 37° C. for 3 days in 5% CO2. For the last 6 hours, pulse labeling was performed with 0.5 μCi/well of [^3H] thymidine. The cells were collected on a glass filter using a cell harvester (Inoteck, Bertold Japan Co., Ltd.). After drying, the level of [^3H] thymidine taken up into the cells was determined using a liquid scintillation counter (TRI-CARB 4530, Packard Japan KK).

B1: Cry j 1: major cedar pollen allergen, 353 amino acids, extracted and purified from cedar pollen (protein)
chain: DNPIDSCWRGDSNWAQNRMKLADCAVGFGSSTMGGKGGDLYTVTNSDDDPVNPAPGTLRYGATRDRPLWIIFSGNMNIKLKMPMYIAGYKTFDGRGAQVYIGNGGPCVFIKRVSNVIIHGLYLYGCSTSVLGNVLINESFGVEPVHPQDGDALTLRTATNIWIDHNSFSNSSDGLVDVTLTSTGVTISNNLFFNHHKVMLLGHDDAYSDDKSMKVTVAFNQFGPNCGQRMPRARYGLVHVANNNYDPWTIYAIGGSSNPTILSEGNSFTAPNESYKKQVTIRIGCKTSSSCSNWVWQSTQDVFYNGAYFVSSGKYEGGNIYTKKEAFNVENGNATPQLTKNAGVLTCSLSKRC
For B1, the “number of T cell epitopes on the molecule that each patient recognized, average” value [1] was 9.8, the “fluorescent intensity (human IgE reactivity)” value (human IgE antibody; 14 subjects of 29) was at least 100 and the “fluorescent intensity (human IgE reactivity)” value (human IgE antibody; five subjects of 29) was “nine”. For the same molecule, the “fluorescent intensity (human IgE reactivity)” value (human IgE antibody; four subjects of 29) was at least 10, the “fluorescent intensity (human IgE reactivity)” value (human IgE antibody; six subjects of 29) was ≥ 1,000 and the “fluorescent intensity with rabbit anti-d epitope peptide IgG” value [2] was 230. The “IL-2 production of lymphocytes restimulated with Cry j 1” value (CBF1 mice) was “obviously reduced” and the “reactivity of spleen cells ([3H] thymidine uptake)” value [3] was “did not react”.
